# Source: patent US20260028400A1 (AIMED BIO, published 2026)
# B1: P015004-vc-PAB-MMAE (antibody, IgG1, V domains shown)
# VH: EVQLLESGGGLVQPGGSLRLSCAASGFTFSDYAMAWVRQAPGKGLEWVSIIYPGDSETIYSPSFEGRFTISRDNSKNTLYLQMNSLRAEDTAVYYCARDTYWEGYFDLWGQGTLVTVSS
# VL: EIVLTQSPGTLSLSPGERATLSCRASQGISNYLAWYQQKPGQAPRLLIYDASNLESGIPDRFSGSGSGTDFTLTISRLEPEDFAVYYCQQYANLPYTFGQGTKVEIK
# modifications: maleimidocaproyl-valine-citrulline-p-aminobenzyloxycarbonyl monomethyl auristatin E on cysteine sulfhydryls of reduced disulfides; positions not given; average 3.0 drugs per antibody
# B2: P015018 scFv (scFv, V domains shown)
# VH: EVQLLESGGGLVQPDGSMRLICAASGFTFSSYAKHWVRQAPGKGLEWVSEIYTSGSTNYNPSLKSRFTISRDNSKNTLYLQMNSLRAEDTAVYYCARDTWWEGYFDLWGQGTLVTVSS
# VL: EIVLTQSPGTLSLSPGERATLSCRASQSVSTYLAWYQQKPGQAPRLLIYDASSLESGIPDRFSGSGSGTDFTLTISRLEPEDFAVYYCQQSYNLPHTFGQGTKVEIK
# notes: HA-tagged scFv
# B3: P015004 scFv (scFv, V domains shown)
# VH: EVQLLESGGGLVQPGGSLRLSCAASGFTFSDYAMAWVRQAPGKGLEWVSIIYPGDSETIYSPSFEGRFTISRDNSKNTLYLQMNSLRAEDTAVYYCARDTYWEGYFDLWGQGTLVTVSS
# VL: EIVLTQSPGTLSLSPGERATLSCRASQGISNYLAWYQQKPGQAPRLLIYDASNLESGIPDRFSGSGSGTDFTLTISRLEPEDFAVYYCQQYANLPYTFGQGTKVEIK
# notes: HA-tagged scFv
# B4: P015043-vcPAB-MMAE (antibody, IgG1, V domains shown)
# VH: EVQLLESGGGLVQPGGSLRLSCAASGFTFSNYDMSWVRQAPGKGLEWVSWISPGGSSIYYADSVKGRFTISRDNSKNTLYLQMNSLRAEDTAVYYCAKTLTRFDYWGQGTLVTVSS
# VL: QSVLTQPPSASGTPGQRVTISCTGSSSNIGNNNVSWYQQLPGTAPKLLIYYDSHRPSGVPDRFSGSKSGTSASLAISGLRSEDEADYYCGTWDSSLSGYVFGGGTKLTVL
# modifications: maleimidocaproyl-valine-citrulline-p-aminobenzyloxycarbonyl monomethyl auristatin E on cysteine sulfhydryls of reduced disulfides; positions not given; DAR 3.32
# B5: P015020 scFv (scFv, V domains shown)
# VH: EVQLLESGGGLVQPGGSLRLSCAASGFTFSGYYMSWVRQAPGKGLEWVSVISHDGSSTYYADSVKGRFTISRDNSKNTLYLQMNSLRAEDTAVYYCAKVKYIFDYWGQGTLVTVSS
# VL: QSVLTQPPSASGTPGQRVTISCTGSSSNIGNNTVNWYQQLPGTAPKLLIYADSNRPSGVPDRFSGSKSGTSASLAISGLRSEDEADYYCDTWDSSLNAYVFGGGTKLTVL
# notes: HA-tagged scFv
# B6: P015028 scFv (scFv, V domains shown)
# VH: EVQLLESGGGMVQTGGSLRLSCAASGFTFSDYAMSWVRQAPGKGLEWVSAISYDNGNTYYADSVKGRFTISRDNSKNALYLQMNSLRAEDTAVYYCAKVNHRFDYWGQGTLVTVSS
# VL: QSVLTQPPSASGTPGQRVTISCSGSSSNIGSNTFNWYQQLPGTAPKLLIYANSHRPSGVPDRFSGSKSGTSASLAISGLRSEDEADYYCASWDASLSGYVFGGGTKLTVL
# notes: HA-tagged scFv
# B7: P015017 scFv (scFv, V domains shown)
# VH: EVQLLESGGGLVQPGGSLRLSCAASGFTFSGYAMSWVRQAPGKGLEWVSVISPGSGSKYYADSVRGRFTVSRDNSKNTLYLQMNSLRAEDTAVYYCARYPLLRYAGALYSAYAMDVWGQGTLVTVSS
# VL: QSVLTQPPSASGTPGQRVTISCSGSSSNIGSNYVSWYQQLPGTAPKLLIYANSHRPSGVPDRFSGSKSGTSASLAISGLRSEDEADYYCGAWDSSLNGYVFGGGTKLTVL
# notes: HA-tagged scFv
# B8: P015016 scFv (scFv, V domains shown)
# VH: EVQLLESGGGLVQTGGSLRLSCAASGFTFSDYAMSWVRQAPGKGLEWVSAISHGGSSKYYADSVKGRFTISRDNSKNTLYLQMNSLRAEDTAVYYCARVSLDFDYWGQGTLVAVSS
# VL: QSVLTQPPSASGTPGQRVTISCSGSSSNIGSNTFNWYQQLPGTAPKLLIYADSHRPSGVPDRFSGSKSGTSASLAISGLRSEDEADYYCAAWDASLSAYVFGGGTKLTVL
# notes: HA-tagged scFv
# B9: P015023 scFv (scFv, V domains shown)
# VH: EVQLLESGGGLVQPGGSLRLSCAASGFTFSGYDMSWVRQAPGKGLEWVSGISHDGRSKYYADSVKGRFTVSRDNSKNTLYLQMNSLRAEDTAVYYCAKDVPFKMRFIFDYWGQGTLVTVSS
# VL: QSVLTQPPSASGTPGQRVTLSCTGSSSNIGSNTVYWYQQLPGTAPKLLIYADSQRPSGVPDRFSGSKSGTSASLAISGLRSEDEADYYCGSWDSSLNAYVFGGGTKLTVL
# notes: HA-tagged scFv
# B10: P015022 scFv (scFv, V domains shown)
# VH: EVQLLESGGGLVQPGGSLRLSCAASGFTFSNYDMSWVRQAPGKGLEWVSSISSNGGSTYYADSVKGRFTISRDNSKNTLYLQMNSLRAEDTAVYYCAKCLLQFDYWGQGTLVTVSS
# VL: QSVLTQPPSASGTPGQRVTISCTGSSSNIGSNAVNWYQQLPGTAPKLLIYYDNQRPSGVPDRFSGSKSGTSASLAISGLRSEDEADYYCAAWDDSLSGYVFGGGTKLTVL
# notes: HA-tagged scFv
# B11: P015024 scFv (scFv, V domains shown)
# VH: EVQLLESGGGLVQPGGSLRLSCAASGFTFSDYYMSWVRQAPGKGLEWVSLISPGSDSKYYADSVKGRFTISRDNSKNTLYLQMNSLRAEDTAVYYCAKIEPDFDYWGQGTLVTVSS
# VL: QSVLTQPPSASGTPGQRVTISCSGSSSNIGSNTFNWYQQLPGTAPKLLIYADSHRPSGVPDRFSGSKSGTSASLAISGLRSEDEADYYCATWDYSLSAYVFGGGTKLTVL
# notes: HA-tagged scFv
# B12: P015042v1-3 (antibody, V domains shown)
# VH: EVQLLESGGGLVQPGGSLRLSCAASGFTFSDYAMSWVRQAPGKGLEWVSVISSDGGSIYYADSVKGRFTISRDNSKNTLYLQMNSLRAEDTAVYYCAKDRSRDMEVDFDYWGQGTLVTVSS
# VL: QSVLTQPPSASGTPGQRVTISCSGSSSNIGSNYVTWYQQLPGTAPKLLIYDASQRPSGVPDRFSGSKSGTSASLAISGLRSEDEADYYCGTWDYSLNGYVFGGGTKLTVL
# notes: Variant of P015042v1, tested as IgG; also called LC S51 substituted with A
# B13: P015042v1-2 (antibody, V domains shown)
# VH: EVQLLESGGGLVQPGGSLRLSCAASGFTFSDYAMSWVRQAPGKGLEWVSVISSDKGSIYYADSVKGRFTISRDNSKNTLYLQMNSLRAEDTAVYYCAKDRSRDMEVDFDYWGQGTLVTVSS
# VL: QSVLTQPPSASGTPGQRVTISCSGSSSNIGSNYVTWYQQLPGTAPKLLIYDSSQRPSGVPDRFSGSKSGTSASLAISGLRSEDEADYYCGTWDYSLNGYVFGGGTKLTVL
# notes: Variant of P015042v1, tested as IgG; also called HC G55 substituted with K
# B14: P015042v1-1 (antibody, V domains shown)
# VH: EVQLLESGGGLVQPGGSLRLSCAASGFTFSDYAMSWVRQAPGKGLEWVSVISSDVGSIYYADSVKGRFTISRDNSKNTLYLQMNSLRAEDTAVYYCAKDRSRDMEVDFDYWGQGTLVTVSS
# VL: QSVLTQPPSASGTPGQRVTISCSGSSSNIGSNYVTWYQQLPGTAPKLLIYDSSQRPSGVPDRFSGSKSGTSASLAISGLRSEDEADYYCGTWDYSLNGYVFGGGTKLTVL
# notes: Variant of P015042v1, tested as IgG; also called HC G55 substituted with V
# Assays:
# [1] = biological target: ROR1 expressed on cell surface (Jeko-1 cell line, AMB-LC-0003T and AMB-LC-0002T patient-derived lung cancer … (human, UniProt Q01973 30-937)); assay: cell-based or functional assay
# FZD = biological target: T1, FZD (human, UniProt Q01973); assay: scFv ELISA on coated domain, anti-HA-HRP, OD450
# T1 construct: frizzled domain, His tag; also called Frizzled domain; human ROR1-frizzled domain
# Description: (§1) Thereafter, the plate was treated with each scFv and reacted for 2 hours, followed by washing four times using PBST and distilled water. After binding at room temperature for 1 hour using an HRP-conjugated anti-HA antibody (Roche, 12013819001, Anti-HA-Peroxidase, High Affinity) capable of binding to the HA tag, washing was performed six times using PBST and distilled water. After color development by adding TMB substrate solution (Thermo Scientific, 34029, 1-Step™ Ultra TMB-ELISA Substrate Solution), the color reaction was stopped with stop solution (Invitrogen, SS04, ELISA Stop Solution), and the absorbance was measured at OD 450 nm. The scFv binding to each domain was analyzed through ELISA.
# Ig-like = biological target: T2, Ig-like (human, UniProt Q01973); assay: scFv ELISA on coated domain, anti-HA-HRP, OD450
# T2 construct: Ig-like domain, His tag; also called Ig-like domain; human ROR1-immunoglobulin domain
# Description: as §1
# FZD+KRD = biological target: T3, FZD+KRD (human, UniProt Q01973); assay: scFv ELISA on coated domain, anti-HA-HRP, OD450
# T3 construct: frizzled plus kringle domains, His tag; also called FK domain; human ROR1-frizzled-kringle domain
# Description: as §1
# mouse ROR1 [2] = biological target: T4, mouse ROR1 (mouse, UniProt Q9Z139 30-403, limits assumed); assay: ELISA, IgG on coated mouse ROR1, OD450
# T4 construct: also called mouse ROR1 protein
# Description: (§2) A 96-well plate was coated at 4° C. for 16 hours with each of human ROR1 and mouse ROR1 proteins at a concentration of 2 μg/ml and then blocked using […]. […] After washing with PBST and distilled water, binding at room temperature for 1 hour using a goat-derived HRP-conjugated anti-human antibody (Invitrogen, 31482, Goat anti-Human IgG F(ab′)₂ Secondary Antibody, HRP) and then washing again using PBST and distilled water were performed. After color development by adding TMB substrate solution (Thermo Scientific, 34029, 1-Step™ Ultra TMB-ELISA Substrate Solution), the color reaction was stopped with stop solution (Invitrogen, SS04, ELISA Stop Solution), and the absorbance was measured at OD 450 nm. It was confirmed that the anti-ROR1 antibody of the present invention and the modified antibody thereof with improved biological and physical properties […] to human ROR1 and mouse ROR1 (FIG. 2).
# human ROR1 [3] = biological target: T5, human ROR1 (human, UniProt Q01973 30-403, limits assumed); assay: ELISA, IgG on coated human ROR1, OD450
# T5 construct: also called human ROR1 protein
# Description: as §2
# human ROR1 [4] = biological target: T5, human ROR1; assay: SPR (Biacore 3000), human ROR1 on CM5 chip, IgG injected, 1:1 Langmuir
# Description: (§3) To more quantitatively analyze the binding ability of the anti-ROR1 antibody to ROR1, SPR (surface plasmon resonance) was performed. A Biacore 3000 device (GE Healthcare) was used. Using the amine coupling method, human ROR1 or mouse ROR1 was diluted with 10 mM sodium acetate, pH 4.5 and immobilized on a CM5 sensor chip (GE Healthcare) at 300 response units (RU). The activated portion remaining on the surface of the sensor chip was deactivated by adding 1 M ethanolamine-HCl (pH 8.5).
# mouse ROR1 [5] = biological target: T4, mouse ROR1; assay: SPR (Biacore 3000), mouse ROR1 on CM5 chip, IgG injected, 1:1 Langmuir
# Description: as §3
# T2 sequence (Q01973 39-151 limits assumed): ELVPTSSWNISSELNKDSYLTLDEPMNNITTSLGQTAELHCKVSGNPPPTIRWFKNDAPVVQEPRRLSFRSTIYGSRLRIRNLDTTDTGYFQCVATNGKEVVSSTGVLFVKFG
# T5 sequence (Q01973 30-403 limits assumed): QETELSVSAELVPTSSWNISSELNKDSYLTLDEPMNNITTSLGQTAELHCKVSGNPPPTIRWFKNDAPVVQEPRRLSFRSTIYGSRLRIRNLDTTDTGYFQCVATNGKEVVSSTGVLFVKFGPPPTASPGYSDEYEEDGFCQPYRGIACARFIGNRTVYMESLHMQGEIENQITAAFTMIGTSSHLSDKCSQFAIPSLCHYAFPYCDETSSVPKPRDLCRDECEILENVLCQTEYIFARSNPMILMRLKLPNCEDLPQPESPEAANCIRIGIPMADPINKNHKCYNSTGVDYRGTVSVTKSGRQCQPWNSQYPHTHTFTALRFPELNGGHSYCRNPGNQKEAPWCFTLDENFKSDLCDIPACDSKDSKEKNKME
# T1 sequence (Q01973 165-305 limits assumed): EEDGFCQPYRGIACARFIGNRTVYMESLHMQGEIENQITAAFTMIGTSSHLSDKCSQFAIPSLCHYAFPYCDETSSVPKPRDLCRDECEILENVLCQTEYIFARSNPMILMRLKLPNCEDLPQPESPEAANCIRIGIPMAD
# T4 sequence (Q9Z139 30-403 limits assumed): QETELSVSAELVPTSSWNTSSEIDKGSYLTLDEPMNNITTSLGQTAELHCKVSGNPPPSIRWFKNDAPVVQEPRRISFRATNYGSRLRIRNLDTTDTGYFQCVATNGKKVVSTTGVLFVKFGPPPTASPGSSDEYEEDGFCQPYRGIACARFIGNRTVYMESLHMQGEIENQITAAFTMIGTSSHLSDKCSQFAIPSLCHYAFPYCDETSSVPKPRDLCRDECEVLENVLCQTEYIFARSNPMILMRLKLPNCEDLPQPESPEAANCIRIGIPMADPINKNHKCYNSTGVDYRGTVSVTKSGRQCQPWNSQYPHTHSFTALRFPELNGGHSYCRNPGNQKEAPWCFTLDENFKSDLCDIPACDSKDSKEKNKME
# T3 sequence (Q01973 165-395 limits assumed): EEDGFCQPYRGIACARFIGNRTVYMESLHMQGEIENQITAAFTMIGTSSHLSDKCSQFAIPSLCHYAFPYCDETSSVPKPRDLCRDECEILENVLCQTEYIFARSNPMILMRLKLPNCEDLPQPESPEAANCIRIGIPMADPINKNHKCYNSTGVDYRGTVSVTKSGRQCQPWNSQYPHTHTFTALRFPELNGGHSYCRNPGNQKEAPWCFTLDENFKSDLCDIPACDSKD
# Sequence of ROR1 expressed on cell surface (Jeko-1 cell line, AMB-LC-0003T and AMB-LC-0002T patient-derived lung cancer … (Q01973 30-937): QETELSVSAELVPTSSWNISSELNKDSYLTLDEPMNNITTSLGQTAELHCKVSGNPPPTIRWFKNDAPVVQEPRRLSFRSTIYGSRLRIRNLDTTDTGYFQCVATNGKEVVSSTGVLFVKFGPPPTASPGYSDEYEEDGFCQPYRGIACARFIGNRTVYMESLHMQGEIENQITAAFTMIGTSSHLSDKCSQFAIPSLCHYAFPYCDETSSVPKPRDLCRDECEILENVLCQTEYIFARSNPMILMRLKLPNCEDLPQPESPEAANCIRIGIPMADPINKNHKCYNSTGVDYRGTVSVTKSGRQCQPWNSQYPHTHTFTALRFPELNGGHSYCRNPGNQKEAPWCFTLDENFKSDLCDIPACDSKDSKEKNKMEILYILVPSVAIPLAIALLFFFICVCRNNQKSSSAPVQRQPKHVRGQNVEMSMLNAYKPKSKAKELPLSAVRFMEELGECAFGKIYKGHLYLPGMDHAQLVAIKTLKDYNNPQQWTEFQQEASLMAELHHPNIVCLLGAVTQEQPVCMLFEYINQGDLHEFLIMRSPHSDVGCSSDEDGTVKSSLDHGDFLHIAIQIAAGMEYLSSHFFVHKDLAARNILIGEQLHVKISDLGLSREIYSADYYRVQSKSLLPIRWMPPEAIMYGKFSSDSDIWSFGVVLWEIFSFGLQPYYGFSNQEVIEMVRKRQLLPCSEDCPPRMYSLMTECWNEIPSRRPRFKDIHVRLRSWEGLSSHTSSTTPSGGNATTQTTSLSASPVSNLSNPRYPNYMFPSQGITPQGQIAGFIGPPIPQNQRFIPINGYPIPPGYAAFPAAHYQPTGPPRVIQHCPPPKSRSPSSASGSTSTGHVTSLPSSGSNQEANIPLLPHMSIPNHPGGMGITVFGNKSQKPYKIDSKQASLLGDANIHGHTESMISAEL
binder,measurement,setting,value
B1,"Fold Change of IC50, AMB-LC-0002T/AMB-LC-0003T",[1],15 fold
same,"IC50 (nM), spheroid volume after 6 days of treatment, AMB-LC-0003T (high ROR1 expression)",[1],10.6 nM
same,"IC50 (nM), spheroid volume, AMB-LC-0002T (very low ROR1 expression)",[1],160 nM
B2,binding result,FZD,no binding
same,binding result,Ig-like,no binding
same,binding result,FZD+KRD,no binding
B3,binding result,FZD,no binding
same,binding result,Ig-like,no binding
same,binding result,FZD+KRD,no binding
B4,"Fold Change of IC50, AMB-LC-0002T/AMB-LC-0003T",[1],4.8 fold
same,"IC50 (nM), spheroid volume after 6 days of treatment, AMB-LC-0003T (high ROR1 expression)",[1],34.6 nM
same,"IC50 (nM), spheroid volume, AMB-LC-0002T (very low ROR1 expression)",[1],165 nM
B5,binding result,FZD,no binding
same,binding result,FZD+KRD,no binding
B6,binding result,FZD,no binding
same,binding result,FZD+KRD,no binding
B7,binding result,FZD,no binding
same,binding result,Ig-like,binds
same,binding result,FZD+KRD,no binding
B8,binding result,FZD,no binding
same,binding result,Ig-like,binds
same,binding result,FZD+KRD,no binding
B9,binding result,FZD,no binding
same,binding result,FZD+KRD,no binding
B10,binding result,FZD,no binding
same,binding result,FZD+KRD,no binding
B11,binding result,FZD,no binding
same,binding result,FZD+KRD,no binding
B12,EC50 (read off the curve),mouse ROR1 [2],~0.3 nM
same,EC50 (read off the curve),human ROR1 [3],~0.5 nM
same,Kd,human ROR1 [4],0.0262 nM
same,koff,human ROR1 [4],7.95e-05 s⁻¹
same,kon,human ROR1 [4],3.03e+06 M⁻¹ s⁻¹
same,Kd,mouse ROR1 [5],0.127 nM
same,koff,mouse ROR1 [5],0.000548 s⁻¹
same,kon,mouse ROR1 [5],4.3e+06 M⁻¹ s⁻¹
B13,EC50 (read off the curve),mouse ROR1 [2],~0.3 nM
same,EC50 (read off the curve),human ROR1 [3],~0.5 nM
same,Kd,human ROR1 [4],0.0152 nM
same,koff,human ROR1 [4],4.08e-05 s⁻¹
same,kon,human ROR1 [4],2.66e+06 M⁻¹ s⁻¹
same,Kd,mouse ROR1 [5],0.0831 nM
same,koff,mouse ROR1 [5],0.000226 s⁻¹
same,kon,mouse ROR1 [5],2.71e+06 M⁻¹ s⁻¹
B14,EC50 (read off the curve),mouse ROR1 [2],~0.3 nM
same,EC50 (read off the curve),human ROR1 [3],~0.5 nM
same,Kd,human ROR1 [4],0.033 nM
same,koff,human ROR1 [4],7.22e-05 s⁻¹
same,kon,human ROR1 [4],2.19e+06 M⁻¹ s⁻¹
same,Kd,mouse ROR1 [5],0.192 nM
same,koff,mouse ROR1 [5],0.00043 s⁻¹
same,kon,mouse ROR1 [5],2.24e+06 M⁻¹ s⁻¹
